Test results: article PMC10397247

Experiments:
Assay in all cases: two-hybrid library CCNG1;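 further: natural log of median RNA to DNA barcode read ratio; higher means stronger binding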
O13-bA = target: T1, O13-bA
T1 chain: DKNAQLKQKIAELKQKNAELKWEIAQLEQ

O14-bA = target: T2, O14-bA
T2 chain: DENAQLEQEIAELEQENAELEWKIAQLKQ

O7-bA = target: T3, O7-bA
T3 chain: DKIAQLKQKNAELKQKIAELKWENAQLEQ

O2-bA = target: T4, O2-bA
T4 chain: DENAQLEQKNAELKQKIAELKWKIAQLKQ

O4-bA = target: T5, O4-bA
T5 chain: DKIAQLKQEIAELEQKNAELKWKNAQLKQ

O6-bA = target: T6, O6-bA
T6 chain: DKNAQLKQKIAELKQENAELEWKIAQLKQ

O8-bA = target: T7, O8-bA
T7 chain: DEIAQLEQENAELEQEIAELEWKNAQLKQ

O15-bA = target: T8, O15-bA
T8 chain: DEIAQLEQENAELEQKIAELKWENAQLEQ

O9-bA = target: T9, O9-bA
T9 chain: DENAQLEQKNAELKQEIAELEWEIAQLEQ

O16-bA = target: T10, O16-bA
T10 chain: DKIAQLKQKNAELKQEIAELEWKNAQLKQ

O12-bA = target: T11, O12-bA
T11 chain: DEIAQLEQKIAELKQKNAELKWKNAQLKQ

O3-bA = target: T12, O3-bA
T12 chain: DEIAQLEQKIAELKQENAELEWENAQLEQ

O5-bA = target: T13, O5-bA
T13 chain: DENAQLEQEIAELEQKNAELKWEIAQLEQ

4H2444-bN = target: T14, 4H2444-bN
T14 chain: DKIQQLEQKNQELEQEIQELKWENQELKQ

4H2223-bN = target: T15, 4H2223-bN
T15 chain: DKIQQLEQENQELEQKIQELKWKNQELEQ

4H754-bA = target: T16, 4H754-bA
T16 chain: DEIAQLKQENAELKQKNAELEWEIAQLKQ

4H2839-bN = target: T17, 4H2839-bN
T17 chain: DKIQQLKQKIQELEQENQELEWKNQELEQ

4H264-bN = target: T18, 4H264-bN
T18 chain: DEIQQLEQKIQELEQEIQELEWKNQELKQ

4H3277-bN = target: T19, 4H3277-bN
T19 chain: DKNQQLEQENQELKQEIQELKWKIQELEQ

4H2692-bN = target: T20, 4H2692-bN
T20 chain: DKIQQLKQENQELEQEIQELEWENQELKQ

4H2588-bN = target: T21, 4H2588-bN
T21 chain: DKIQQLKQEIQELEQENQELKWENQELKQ

4H2253-bN = target: T22, 4H2253-bN
T22 chain: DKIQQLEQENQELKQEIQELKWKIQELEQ

4H3364-bN = target: T23, 4H3364-bN
T23 chain: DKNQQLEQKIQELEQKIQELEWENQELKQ

4H932-bN = target: T24, 4H932-bN
T24 chain: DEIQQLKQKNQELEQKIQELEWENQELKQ

4H949-bN = target: T25, 4H949-bN
T25 chain: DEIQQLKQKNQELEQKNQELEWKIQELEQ

4H570-bN = target: T26, 4H570-bN
T26 chain: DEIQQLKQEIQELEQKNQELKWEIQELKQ

4H2473-bN = target: T27, 4H2473-bN
T27 chain: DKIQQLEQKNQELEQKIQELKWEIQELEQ

4H348-bN = target: T28, 4H348-bN
T28 chain: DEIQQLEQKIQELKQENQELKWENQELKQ

4H235-bN = target: T29, 4H235-bN
T29 chain: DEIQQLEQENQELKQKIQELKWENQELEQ

4H477-bN = target: T30, 4H477-bN
T30 chain: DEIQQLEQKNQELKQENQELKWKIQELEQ

4H3297-bN = target: T31, 4H3297-bN
T31 chain: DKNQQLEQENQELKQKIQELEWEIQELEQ

4H3041-bN = target: T32, 4H3041-bN
T32 chain: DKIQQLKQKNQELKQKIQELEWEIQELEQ

4H2503-bN = target: T33, 4H2503-bN
T33 chain: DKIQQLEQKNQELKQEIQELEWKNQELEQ

4H3354-bN = target: T34, 4H3354-bN
T34 chain: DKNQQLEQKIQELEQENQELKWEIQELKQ

4H796-bN = target: T35, 4H796-bN
T35 chain: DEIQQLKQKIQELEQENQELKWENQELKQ

4H2143-bN = target: T36, 4H2143-bN
T36 chain: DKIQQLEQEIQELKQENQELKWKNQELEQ

4H40-bN = target: T37, 4H40-bN
T37 chain: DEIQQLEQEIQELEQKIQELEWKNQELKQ

4H3381-bN = target: T38, 4H3381-bN
T38 chain: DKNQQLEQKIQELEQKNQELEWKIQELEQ

4H319-bN = target: T39, 4H319-bN
T39 chain: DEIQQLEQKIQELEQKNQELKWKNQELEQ

4H2233-bN = target: T40, 4H2233-bN
T40 chain: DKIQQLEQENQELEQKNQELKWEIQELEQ

4H492-bN = target: T41, 4H492-bN
T41 chain: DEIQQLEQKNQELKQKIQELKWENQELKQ

4H2585-bN = target: T42, 4H2585-bN
T42 chain: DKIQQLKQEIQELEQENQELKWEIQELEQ

4H3057-bN = target: T43, 4H3057-bN
T43 chain: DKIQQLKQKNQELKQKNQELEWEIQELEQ

4H2438-bN = target: T44, 4H2438-bN
T44 chain: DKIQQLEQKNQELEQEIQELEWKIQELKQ

4H741-bN = target: T45, 4H741-bN
T45 chain: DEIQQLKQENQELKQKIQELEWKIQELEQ

O11-bN = target: T46, O11-bN
T46 chain: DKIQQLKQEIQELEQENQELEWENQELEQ

4H2859-bN = target: T47, 4H2859-bN
T47 chain: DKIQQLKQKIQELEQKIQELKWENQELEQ

4H730-bN = target: T48, 4H730-bN
T48 chain: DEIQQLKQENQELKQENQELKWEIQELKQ

4H349-bN = target: T49, 4H349-bN
T49 chain: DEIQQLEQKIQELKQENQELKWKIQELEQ

4H2717-bN = target: T50, 4H2717-bN
T50 chain: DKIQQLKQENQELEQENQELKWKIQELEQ

4H2915-bN = target: T51, 4H2915-bN
T51 chain: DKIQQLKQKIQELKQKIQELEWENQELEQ

4H2162-bN = target: T52, 4H2162-bN
T52 chain: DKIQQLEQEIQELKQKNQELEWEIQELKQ

4H2760-bN = target: T53, 4H2760-bN
T53 chain: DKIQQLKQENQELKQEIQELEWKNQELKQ

4H56-bN = target: T54, 4H56-bN
T54 chain: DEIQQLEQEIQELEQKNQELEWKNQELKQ

4H2518-bN = target: T55, 4H2518-bN
T55 chain: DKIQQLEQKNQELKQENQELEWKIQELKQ

4H2931-bN = target: T56, 4H2931-bN
T56 chain: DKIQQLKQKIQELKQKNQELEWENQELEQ

4H2444-bA = target: T57, 4H2444-bA
T57 chain: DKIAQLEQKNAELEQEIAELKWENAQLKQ

An interaction score (O13-bA) of -0.478, an interaction score (O14-bA) of -0.435 and an interaction score (O7-bA) of -0.372 were found for DEIAQLEQKIAELKQKNAELKWKNAQLKQ [O12-bA] in this work. The interaction score (O2-bA) was -0.795, the interaction score (O4-bA) was 1.27 and the interaction score (O6-bA) was 0.643. For the same binder, the interaction score (O8-bA) was 0.0711, the interaction score (O15-bA) was -0.225 and the interaction score (O9-bA) was 1.04. For the same binder, the interaction score (O16-bA) was -0.73, the interaction score (O12-bA) was -1.51 and the interaction score (O3-bA) was 1.31. It also gave an interaction score (O5-bA) of -0.511.

An interaction score (4H2444-bN) of -1.29, an interaction score (4H2223-bN) of -0.138 and an interaction score (4H754-bA) of 0.173 were found for DKIQQLEQEIQELKQENQELKWKNQELEQ [4H2143-bN] in this work. For the same binder, the interaction score (4H2839-bN) was -0.0339, the interaction score (4H264-bN) was -0.0625 and the interaction score (4H3277-bN) was -0.382. The interaction score (4H2692-bN) was -0.295, the interaction score (4H2588-bN) was -0.413 and the interaction score (4H2253-bN) was 0.598. For the same binder, the interaction score (4H3364-bN) was -0.973, the interaction score (4H932-bN) was 0.299 and the interaction score (4H949-bN) was -0.46. For the same binder, the interaction score (4H570-bN) was -0.424, the interaction score (4H2473-bN) was -0.596 and the interaction score (4H348-bN) was 0.129. It also gave an interaction score (4H235-bN) of 0.188, an interaction score (4H477-bN) of -0.266 and an interaction score (4H3297-bN) of -0.664. The interaction score (4H3041-bN) was 0.217, the interaction score (4H2503-bN) was -0.374 and the interaction score (4H3354-bN) was -2.78. The interaction score (4H796-bN) was -0.462, the interaction score (4H2143-bN) was 0.45 and the interaction score (4H40-bN) was 0.442. It also gave an interaction score (4H3381-bN) of -0.161, an interaction score (4H319-bN) of -1.38 and an interaction score (4H2233-bN) of -1.37. It also gave an interaction score (4H492-bN) of -0.438, an interaction score (4H2585-bN) of -1.01 and an interaction score (4H3057-bN) of -0.303. The interaction score (4H2438-bN) was 0.267, the interaction score (4H741-bN) was -0.465 and the interaction score (O11-bN) was -1.88. For the same binder, the interaction score (4H2859-bN) was -0.319, the interaction score (4H730-bN) was 0.137 and the interaction score (4H349-bN) was 0.196. For the same binder, the interaction score (4H2717-bN) was 0.125, the interaction score (4H2915-bN) was 0.491 and the interaction score (4H2162-bN) was 0.354. For the same binder, the interaction score (4H2760-bN) was -0.843, the interaction score (4H56-bN) was -0.695 and the interaction score (4H2518-bN) was -0.0822. It also gave an interaction score (4H2931-bN) of -0.53.

An interaction score (4H2444-bN) of -1.27, an interaction score (4H2444-bA) of -0.359 and an interaction score (4H264-bN) of -0.799 were found for DKIQQLEQEIQELKQKNQELEWEIQELKQ [4H2162-bN] in this work. For the same binder, the interaction score (4H2253-bN) was -0.654, the interaction score (4H3364-bN) was -0.416 and the interaction score (4H932-bN) was -0.305. The interaction score (4H949-bN) was -1.05, the interaction score (4H235-bN) was -0.0614 and the interaction score (4H3297-bN) was -0.173. For the same binder, the interaction score (4H3041-bN) was 1.18, the interaction score (4H796-bN) was -0.418 and the interaction score (4H3381-bN) was -0.622. The interaction score (4H2233-bN) was -0.887, the interaction score (4H2585-bN) was 0.615 and the interaction score (4H2859-bN) was 0.571. The interaction score (4H730-bN) was -0.649, the interaction score (4H349-bN) was 0.391 and the interaction score (4H2162-bN) was 1.61. For the same binder, the interaction score (4H2760-bN) was -0.495, the interaction score (4H56-bN) was -0.33 and the interaction score (4H2518-bN) was 0.614. The interaction score (4H2931-bN) was -1.12.

An interaction score (4H2444-bN) of -0.713, an interaction score (4H264-bN) of -0.163 and an interaction score (4H2253-bN) of -0.322 were found for DKIQQLEQENQELEQKNQELKWEIQELEQ [4H2233-bN] in this work. The interaction score (4H3364-bN) was -0.324, the interaction score (4H932-bN) was -1.19 and the interaction score (4H949-bN) was -1.36. It also gave an interaction score (4H235-bN) of -0.762, an interaction score (4H3297-bN) of -1.34 and an interaction score (4H3041-bN) of -1.98. The interaction score (4H796-bN) was -0.624, the interaction score (4H3381-bN) was -0.889 and the interaction score (4H2233-bN) was -1.12. It also gave an interaction score (4H2585-bN) of -2.3, an interaction score (4H2859-bN) of -0.431 and an interaction score (4H730-bN) of -0.539. It also gave an interaction score (4H349-bN) of -0.452, an interaction score (4H2760-bN) of -0.863 and an interaction score (4H56-bN) of -0.577. For the same binder, the interaction score (4H2518-bN) was 1.97 and the interaction score (4H2931-bN) was -0.485.
